# Patent US12091446
# Key:
# [1] = target: SARS-COV-2 RBD Beta variant (SARS-CoV-2)
# [2] = target: SARS-COV-2 RBD Gamma variant (SARS-CoV-2)
# [3] = target: SARS-COV-2 RBD Lambda variant (SARS-CoV-2)
# [4] = target: SARS-COV-2 RBD Mu variant (SARS-CoV-2)
# Sequence of huACE2-Fc (Q9BYF1 18-740): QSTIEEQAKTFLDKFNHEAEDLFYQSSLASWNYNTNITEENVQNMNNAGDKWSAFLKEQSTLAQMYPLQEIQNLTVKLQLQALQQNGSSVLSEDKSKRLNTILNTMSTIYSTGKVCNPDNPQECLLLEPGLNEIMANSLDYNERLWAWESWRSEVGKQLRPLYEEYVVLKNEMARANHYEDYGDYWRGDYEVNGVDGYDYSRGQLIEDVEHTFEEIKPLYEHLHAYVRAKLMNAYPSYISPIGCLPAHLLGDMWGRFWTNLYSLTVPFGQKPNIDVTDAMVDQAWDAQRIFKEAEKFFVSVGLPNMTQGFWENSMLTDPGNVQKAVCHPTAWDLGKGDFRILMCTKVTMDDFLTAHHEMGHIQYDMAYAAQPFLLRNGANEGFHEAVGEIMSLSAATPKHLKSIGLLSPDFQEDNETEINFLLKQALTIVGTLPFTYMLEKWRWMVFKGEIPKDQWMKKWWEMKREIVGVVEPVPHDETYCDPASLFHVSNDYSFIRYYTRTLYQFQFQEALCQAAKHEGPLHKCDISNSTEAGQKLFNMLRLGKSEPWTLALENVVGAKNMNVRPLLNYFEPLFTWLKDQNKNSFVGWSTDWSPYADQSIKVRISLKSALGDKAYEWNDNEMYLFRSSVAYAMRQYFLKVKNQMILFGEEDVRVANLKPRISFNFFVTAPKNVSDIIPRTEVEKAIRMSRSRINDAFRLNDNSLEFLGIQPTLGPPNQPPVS
substance,measurement,setting,value
huACE2-Fc (from UniProt Q9BYF1) (Fc fusion),Kd,[1],44.4 nM
same,Kd,[2],3.6 nM
same,Kd,[3],5.34 nM
same,Kd,[4],12.9 nM
